The target in assay [1] is T1, homologous Fc (R&D Systems), Fc control surface (human, UniProt P01857-1 100-330 = IgG part, limits assumed).
T1 construct: domain: Fc; Counter-screen surface in the SPR assay; also called human Fc portion
The assay can be described thus: SPR (Biacore 2000), Fc immobilised on a CM5 chip. From the text:
Biacore® instruments incorporate microfluidics technology and surface plasmon resonance (SPR). The angle of polarized light reflecting from the side of a gold-coated sensor opposite to the solution phase is a function of the evanescent wave extending into the solution phase and sensitive to the refractive index near that interface. This refractive index is proportional to the mass density of adsorbates (e.g., an antigen or antibody) near the sensor chip interface, and reported in Response Units. […] Time-resolved signals were acquired from all surfaces simultaneously, and the signal from the blank control surface was subtracted as a negative control.
In general terms: Surface plasmon resonance follows binding to a sensor surface in real time, without labels.

Assay [2] deals with T2, human PD-1 (Programmed Cell Death 1), expressed on cells (human, UniProt Q15116 25-288).
T2 construct: also called human PD-1 on 293 cells
The assay can be described thus: cell binding; 0.2 ug/ml IgG on activated human CD4+ cells, 37 C. On the procedure:
(§1) 293 cells were transfected to express PD-1 on their cell membranes. Human CD4⁺ cells were activated by incubation with anti-CD3/anti-CD28 beads (approximately 1 bead: 1-2 cells) for 48-72 hours at 37° C. Rhesus CD4⁺ cells (2×10⁶ cells/mL) were activated by incubation in plates coated with 1 μg/mL anti-CD3/anti-CD28 for 24-72 hours at 37° C.

Assay [3] concerns the target T3, rhesus PD-1 naturally expressed on activated rhesus CD4+ cells (rhesus macaque, UniProt B0LAJ2 25-288). The assay can be described thus: inhibition of recombinant PD-L1/Fc binding to activated rhesus CD4+ cells by 0.2 ug/ml IgG, 37 C (mean of 2). On the procedure: as §1
Assay [4] concerns the target T3, rhesus PD-1 naturally expressed on …. Briefly: cell binding; 1.0 ug/ml IgG on activated rhesus CD4+ cells, 37 C. On the procedure:
as §1

In assay [5] the target is T2, human PD-1 (Programmed Cell Death 1), …. Briefly: inhibition of recombinant PD-L1/Fc binding to activated human CD4+ cells by 0.2 ug/ml IgG, 37 C (mean of 2). On the procedure: as §1
Assay [6] shares this target. The assay can be described thus: inhibition of recombinant PD-L1/Fc binding to 293 cells expressing human PD-1 by 20 ug/ml IgG, 4 C. As to the method: as §1
Assay [7] concerns the target T4, recombinant human PD-1/Fc fusion protein (R&D Systems) (human, UniProt Q15116 25-167).
T4 construct: Bought protein; also called immobilized PD-1; not shown: human Fc portion of the bought fusion protein
The assay can be described thus: solution-phase ELISA of IgG with PD-1/Fc; mean ± standard error of the mean. On the procedure: High-binding 96-well ELISA plates were coated with 50 μL 2 μg/mL PD-1/Fc overnight. After washing and blocking, 50 μL of each PD-1/Fc: IgG mixture was transferred to the ELISA plate, incubated for 30 minutes, washed, incubated with goat anti-mouse antibody conjugated to HRP (human absorbed) for one hour, washed, developed with 10-Acetyl-3,7-dihydroxyphenoxazine ([…]) for three minutes, and read on a fluorescent plate reader. All incubations occurred at room temperature. Data were analyzed as described in K. High et al. Several replicates were conducted on multiple plates and multiple days and analyzed independently to determine a range of experimental equilibrium affinity Kd values.

The target of assay [8] is T4, recombinant human PD-1/Fc fusion …. Briefly: SPR (Biacore T100), monomeric Fab over covalently immobilised PD-1/Fc; range of fit Kd. An excerpt: Fractions from the purification column were collected and tested in the Caliper LabChip® system. Only fractions containing pure monomeric Fabs were selected for SPR analysis. Beginning with concentrations determined from the Caliper LabChip®, dilution series were made for each Fab and tested on a Biacore® T100 with the standard kinetic affinity wizard against covalently immobilized PD-1/Fc fusion protein.

T4 sequence (Q15116 25-167 limits assumed): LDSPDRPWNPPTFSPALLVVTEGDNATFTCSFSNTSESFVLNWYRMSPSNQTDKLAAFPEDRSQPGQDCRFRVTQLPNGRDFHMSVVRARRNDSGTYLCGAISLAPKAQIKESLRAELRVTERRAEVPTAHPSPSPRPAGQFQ
T3 sequence (B0LAJ2 entry or part of it limits assumed): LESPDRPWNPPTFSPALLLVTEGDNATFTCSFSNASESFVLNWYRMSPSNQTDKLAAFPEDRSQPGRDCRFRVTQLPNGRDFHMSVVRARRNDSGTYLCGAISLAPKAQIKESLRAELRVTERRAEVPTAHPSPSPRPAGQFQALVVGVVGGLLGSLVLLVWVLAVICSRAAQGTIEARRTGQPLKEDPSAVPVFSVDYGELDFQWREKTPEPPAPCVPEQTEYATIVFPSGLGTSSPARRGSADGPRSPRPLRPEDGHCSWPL
T2 sequence (Q15116 25-288 limits assumed): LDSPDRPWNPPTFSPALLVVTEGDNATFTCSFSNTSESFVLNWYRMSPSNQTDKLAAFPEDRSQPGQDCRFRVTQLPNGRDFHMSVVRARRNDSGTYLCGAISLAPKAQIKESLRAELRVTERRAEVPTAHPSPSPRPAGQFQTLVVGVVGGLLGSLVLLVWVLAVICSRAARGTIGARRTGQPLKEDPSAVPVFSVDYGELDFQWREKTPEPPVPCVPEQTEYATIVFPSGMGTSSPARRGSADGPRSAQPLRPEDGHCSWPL

B1: mAb 2.3A9 (antibody, V domains shown)
VH: QVQLQQSDAELVKPGTSVKISCKASGYTFTDHAIHWLKQEPDQGLEWIGYISPGYGDIEYNEKFKGKATLTADKSSSTAYMQLSSLTSEDSAVYFCKVTTGYWGQGTTLTVS
VL: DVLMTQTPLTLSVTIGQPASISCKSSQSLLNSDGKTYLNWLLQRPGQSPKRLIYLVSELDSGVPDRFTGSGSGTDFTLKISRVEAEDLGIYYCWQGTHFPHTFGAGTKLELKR
notes: Murine IgG from a hybridoma
For B1, the binding result in assay [1] is on record as “no binding (tested: 5 ug/mL (hybridoma supernatant))”. In assay [2], the MFI is 134 MFI.

B2: mAb 1.8A10 (antibody, V domains shown)
VH: EVQLVESGGGLVKPGGSLKLSCAASGFTFSNYDMSWIRQTPEKRLEWVAYISGGGGNTYYPDTLKGRFTISRDNAKNTLYLQMSSLKSEDTAMFYCVRISLTGIFDYWGQGTTLTVSS
VL: DVLMTQTPLSLPVSLGDQASISCRSSQSIVQSNGNTYLEWYLQKPGQSPKLLIYKVSNRFSGVPDRFSGSGSGTDFTLKISRVEAEDLGVYYCFQGSHVPWTFGGGTKLEIKR
notes: Murine IgG from a hybridoma
In the case of B2, the “% inhibition” value came to 24% in assay [3], 51.7% in assay [5] and 99.4% in assay [6]. The figures for the MFI in assay [4] and in assay [2] were 310 MFI and 129 MFI, respectively. Also, the binding result in assay [1] is “no binding (tested: 5 ug/mL (hybridoma supernatant))”. The equilibrium dissociation constant (Kd) in assay [7] amounted to 0.44 nM.

B3: monomeric Fab of mAb 1.8A10 (Fab, V domains shown)
VH: B2 VH
VL: B2 VL
notes: also called 1.8A10 Fab
Turning to B3, the equilibrium dissociation constant (Kd) in assay [8] was in the range of 34 to 43 nM.

B4: mAb 20B3.1 (antibody, V domains shown)
VH: EVKLVESGGGLVKPGGSLKLSCAASGFTFSSFGMSWVRQTPEKRLEWVATISGGGSNTYYPDSVKGRFTISRDNAKNNLYLQMTSLTSEDTALYYCTRIYDVAWFAYWGQGTLVTVS
VL: not shown
notes: Murine IgG from a hybridoma
Consider B4, for which the “% inhibition” value in assay [3] is 75.3%; in assay [5] it was 59.6%; in assay [6], 98.2%. For the same molecule, the MFI in assay [4] came out at 1240 MFI; in assay [2], 154 MFI. The binding result in assay [1] is on record as “no binding (tested: 5 ug/mL (hybridoma supernatant))”.

B5: monomeric Fab of mAb 3H4 (Fab, V domains shown)
VH: QIQLQQSGPELVKPGASVKISCKASGYTFTDYYINWVKQKPGQGLEWIGWIYPGSVNTKYNEKFRGKATLTVDTSSSTAYIQLSGLTSEDTAVYFCARYSNWFFDVWGAGTAVTVS
VL: DIVMTQSPSSLSASLGERVSLTCRASQEISGYLSWLQQKPDGTIKRLIYAASTLDSGVPKRFSGSRSGSDYSLSISSLESEDFADYYCLQYASYPYTFGGGTKLEIKR
notes: also called 3H4 Fab
For B5, in assay [8], the dissociation constant Kd was 63 to 77 nM.

B6: mAb 3H4 (antibody, V domains shown)
VH: B5 VH
VL: B5 VL
notes: Murine IgG from a hybridoma
Turning to B6, the binding result in assay [1] is “no binding (tested: 5 ug/mL (hybridoma supernatant))”. Besides, the MFI in assay [2] was determined as 130 MFI. Moreover, the Kd in assay [7] came to 0.011 nM.

B7: mAb 7G3 (antibody, V domains shown)
VH: QVQLQQSGTELVRPGVSVKISCKGSGYSFTDYALHWMKQSHAKSLEWIGVISTHYGDTVYNQRFKGKATMTVDKSSSTAYMELARLTSEDSAIYYCAREGYGSLFYFDQWGQGTPLTVS
VL: CLMTQTPLSLPVSLGDQASISCRSSQTIVHSDGNTYLEWYLQKSGQSPKLLIYKVSNRFSGVPDRFSGSGSGTDFTLKISRVEAEDLGVYYCFQGSHVPYTFGGGTRLEIRR
notes: Murine IgG from a hybridoma
B7: the “% inhibition” value in assay [3] was 25.5%; in assay [5] it was 57.8%; in assay [6], 92.7%. The MFI in assay [4] turned out to be 655 MFI; in assay [2], 129 MFI. For the same molecule, in assay [1], the binding result was “no binding (tested: 5 ug/mL (hybridoma supernatant))”.

B8: mAb 1G7 (antibody, V domains shown)
VH: EIQLQQSGPELVKPGASVKVSCKASGYAFTSYNIYWVKQSHGKSLEWIGYIDLYNGDTSYNEKFKGKATLTVDKSASTAYMHLNSLTSEDSAVYYCSREGRLSFDYWGQGTLVTVSA
VL: DIVLTQSPASLAVSLGQRATISCRASESVDSYGNSFMNWYQQKPGQPLKLLIYLASNLDSGVPARFSGSGSGTDFSLTIDPVEADDPATYYCQQNNEVPLTFGAGTKLELKR
notes: Murine IgG from a hybridoma
For the molecule B8, the figures for the “% inhibition” value in assay [3], in assay [5] and in assay [6] were 56.5%, 74.3% and 98.8%, respectively. Further, the values for the MFI in assay [4] and in assay [2] were 812 MFI and 137 MFI, respectively. In addition, the binding result in assay [1] is “no binding (tested: 5 ug/mL (hybridoma supernatant))”.

B9: monomeric Fab of mAb 1B8 (Fab, V domains shown)
VH: EVQLVLSGGGFVQPGGSLKLSCAASGFTFSSYAMSWVRQNPERRLVWVATITGGGRNTYYPDSVKGRFTISRDNAKNTLYLQMSSLRSEDTAMYYCTRQGYDGYTWFAYWGQGTLVTVS
VL: not shown
notes: also called 1B8 Fab
In the case of B9, the dissociation constant (Kd) in assay [8] lay in the range of 5.3 to 7 nM.

B10: mAb 1B8 (antibody, V domains shown)
VH: B9 VH
VL: not shown
notes: Murine IgG from a hybridoma; also called murine 1B8; fully murine 1B8 mAb
For B10, the “% inhibition” value in assay [3] was 82.3%; in assay [5] it was 82.1%; in assay [6], 97.6%. Further, the MFI in assay [4] worked out at 1190 MFI; in assay [2], 145 MFI. In assay [1], the binding result is given as “no binding (tested: 5 ug/mL (hybridoma supernatant))”. In assay [7], the Kd came out at 0.03 nM.

In general, % inhibition refers to the change of the read-out against control, counted positive when it falls. Usually Kd stands for a measure of binding affinity in units of concentration.

The values are drawn from patent US20110008369A1 (Merck Sharp & Dohme, published 2011).
